Assays:
[1] = molecular target: anti-CD28 Fab (SEQ ID NOs: 202, 203); experiment: phage ELISA, Fab on plate;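 note: ELISA of crude clonal phage supernatants on the plate, wells preloaded with CD28 antigen or only blocking buffer, captured phage read out via HRP-linked anti-M13 antibody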
Description: (§1) After panning, phage infected bacteria were plated out and colonies picked into 96 well blocks. Clonal phage was then amplified and separated from bacterial cells via centrifugation.
(§2) Clonal phage were harvested as crude supernatants and screened via standard ELISAs. […] Prior to the addition of clonal phage, wells were incubated with blocking buffer and CD28 antigen or blocking buffer alone. Without washing or aspirating, clonal phage supernatants were then added to the wells and incubated for a short time. Wells were then washed followed by detection of bound phage using a horse radish conjugated anti-M13 antibody. Clonal phage of interest were then sent for sequence analysis.

[2] = molecular target: anti-CD28 Fab (SEQ ID NOs: 202, 203); experiment: phage ELISA, Fab on plate, CD28 antigen as competitor;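 note: wells pre-incubated with CD28 antigen in blocking buffer (reference: blocking buffer only) before adding crude clonal phage supernatant, bound phage read with HRP-coupled anti-M13 antibody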
Description: as §1, §2

[3] = molecular target: Anti-CD28 Fab (SEQ ID NOs: 202, 203); experiment: phage binding ELISA on captured Fab;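 note: clonal phage supernatants added briefly to wells pre-incubated with CD28 antigen or with blocking buffer only, then washed, bound phage read by ELISA using HRP-coupled anti-M13 antibody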
Description: (§3) Clonal phage were harvested as crude supernatants and screened via standard ELISAs. […] Prior to the addition of clonal phage, wells were incubated with blocking buffer and CD28 antigen or blocking buffer alone. Without washing or aspirating, clonal phage supernatants were then added to the wells and incubated for a short time. Wells were then washed followed by detection of bound phage using a horse radish conjugated anti-M13 antibody.

[4] = molecular target: Anti-CD28 Fab (SEQ ID NOs: 202, 203); experiment: phage binding ELISA on captured Fab; competitor CD28 antigen;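 for Anti-CD28 Fab signal in the presence of CD28: wells pretreated with CD28 antigen in blocking buffer or buffer only, then clonal phage supernatants added briefly without washing, bound phage detected via horseradish-conjugated anti-M13 antibody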
Description: as §3

Chain of Anti-CD28 Fab (SEQ ID NOs: 202, 203) (VH, as listed by the source, chain 1 of 2): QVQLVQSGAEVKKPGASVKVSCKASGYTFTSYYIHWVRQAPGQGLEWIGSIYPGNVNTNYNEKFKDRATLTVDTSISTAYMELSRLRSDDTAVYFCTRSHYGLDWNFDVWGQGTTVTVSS
Chain of Anti-CD28 Fab (SEQ ID NOs: 202, 203) (VL, as listed by the source, chain 2 of 2): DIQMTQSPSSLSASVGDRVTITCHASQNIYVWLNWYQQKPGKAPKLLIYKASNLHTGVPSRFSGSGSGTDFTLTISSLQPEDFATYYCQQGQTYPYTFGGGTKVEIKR
Chain of anti-CD28 Fab (SEQ ID NOs: 202, 203) (VH, as listed by the source, chain 1 of 2): as the sequence (VH, as listed by the source, chain 1 of 2) above
Chain of anti-CD28 Fab (SEQ ID NOs: 202, 203) (VL, as listed by the source, chain 2 of 2): as the sequence (VL, as listed by the source, chain 2 of 2) above

Binder | Anti-CD28 Fab signal [1] | Anti-CD28 Fab signal in the presence of CD28 [2] | Anti-CD28 Fab signal [3] | Anti-CD28 Fab signal in the presence of CD28 [4]
SCAAGAHYKWPVCI [Phage-1100] | 1.51 | 0.06 |  | 
ICAAGFIWSWPACF [Phage-1101] | 1.51 | 0.08 |  | 
TCSAGATYSWPSCF [Phage-1187] | 1.21 | 0.09 |  | 
TCAAGATYSWPDCF [Phage-1102] | 1.51 | 0.06 |  | 
TCSAGATYTWPSCF [Phage-1125] | 1.42 | 0.06 |  | 
QCAAGAMWTWPVCF [Phage-1103] | 1.5 | 0.07 |  | 
RCAAGAMWTWPACF [Phage-1179] | 1.25 | 0.06 |  | 
TCAAGAHYLWPHCL [Phage-1104] | 1.5 | 0.12 |  | 
PCAAGAMWAWPYCL [Phage-1105] | 1.49 | 0.05 |  | 
TCAAGVHFGWPLCF [Phage-1107] | 1.49 | 0.07 |  | 
TCAAGATYTWPTCF [Phage-1108] | 1.48 | 0.05 |  | 
TCAAGASWEWPACL [Phage-1109] | 1.48 | 0.08 |  | 
TCAAGAMYQWPECF [Phage-1110] | 1.48 | 0.06 |  | 
TCAAGAHYTWPTCL [Phage-1111] | 1.47 | 0.07 |  | 
TCSAGATYKWPVCL [Phage-1112] | 1.47 | 0.06 |  | 
SCSAGATYEWPYCF [Phage-1113] | 1.47 | 0.06 |  | 
YCEGHLPQYMQKCL [Phage-60] |  |  | 2.39 | 0.12
YCDGHAPEYMMKCL [Phage-61] |  |  | 2.39 | 0.09
YCEGHLPEYMWKCL [Phage-62] |  |  | 2.39 | 0.08
YCEGHAAEYMAKCL [Phage-63] |  |  | 2.38 | 0.08
YCDGHLPEYLAKCL [Phage-64] |  |  | 2.38 | 0.11
YCDGHLPEYMSKCM [Phage-66] |  |  | 2.38 | 0.14
YCMGHAPEYMAKCL [Phage-68] |  |  | 2.38 | 0.09
YCDGHLPEYQEKCL [Phage-71] |  |  | 2.37 | 0.1
YCAGHLPQYMSKCL [Phage-72] |  |  | 2.37 | 0.11
YCDGHLPIYMSQCL [Phage-73] |  |  | 2.36 | 0.12
YCEGHSPEYMSKCL [Phage-89] |  |  | 2.31 | 0.07

Binder | Anti-CD28 Fab signal [1] | Anti-CD28 Fab signal in the presence of CD28 [2] | Anti-CD28 Fab signal [3] | Anti-CD28 Fab signal in the presence of CD28 [4]
YCDGHLDEYMAKCL [Phage-94] |  |  | 2.31 | 0.08
YCEGHLPLYMWKCL [Phage-96] |  |  | 2.3 | 0.07
YCDGHLPIYMAKCL [Phage-100] |  |  | 2.3 | 0.14
YCEGHSPQYMWKCL [Phage-142] |  |  | 2.22 | 0.12
YCEGHAAEYMTKCL [Phage-143] |  |  | 2.22 | 0.08
YCEGHLPQYMKKCL [Phage-144] |  |  | 2.22 | 0.1
YCEGHAPEYMLKCL [Phage-146] |  |  | 2.21 | 0.07
YCEGHSQENIWKCL [Phage-32] |  |  | 1.41 | 0.07
YCEGHSQEYLWKCL [Phage-36] |  |  | 2.36 | 0.07
YCEGHSSEYIQKCL [Phage-37] |  |  | 2.25 | 0.1
HCSGHHWLQVWKCF [Phage-38] |  |  | 2.31 | 0.07
YCWSHSPPFIKKCY [Phage-39] |  |  | 2.06 | 0.06
YCEGHLPEYLEKCV [Phage-41] |  |  | 2.11 | 0.06
YCAGHMPEYMAKCL [Phage-65] |  |  | 2.38 | 0.11
YCEGHTAEYMQKCL [Phage-67] |  |  | 2.38 | 0.08
YCDGHSWEYIGKCL [Phage-70] |  |  | 2.37 | 0.07
YCDGHEPQYMLKCL [Phage-88] |  |  | 2.32 | 0.12
YCEGHTMEYMWKCL [Phage-90] |  |  | 2.31 | 0.07
YCAGHLPEYMPHCI [Phage-91] |  |  | 2.31 | 0.09
YCDGHSPQYIEKCL [Phage-92] |  |  | 2.31 | 0.07
YCDGHTLEYMWKCL [Phage-95] |  |  | 2.31 | 0.13
YCAGHSPEHMWKCL [Phage-98] |  |  | 2.3 | 0.06
YCEGHSEEYISKCL [Phage-99] |  |  | 2.3 | 0.08
YCDGHRGEYLQKCL [Phage-141] |  |  | 2.22 | 0.09
YCDGHIEEYRAKCL [Phage-145] |  |  | 2.21 | 0.07
YCDGHAPEYMEKCM [Phage-148] |  |  | 2.21 | 0.07
YCEGHTVEYMAKCL [Phage-149] |  |  | 2.2 | 0.08
